Data published in article PMC130038.
Like-named read-outs stand apart in the source and are kept apart here.

Legend:
Assay in all cases: EMSA
[1] = molecular target: T1, *VLF-1 (HAHIS-VLF-1, very late expression factor 1) (Autographa californica multiple capsid …, UniProt Q06687 1-379)
T1 sequence: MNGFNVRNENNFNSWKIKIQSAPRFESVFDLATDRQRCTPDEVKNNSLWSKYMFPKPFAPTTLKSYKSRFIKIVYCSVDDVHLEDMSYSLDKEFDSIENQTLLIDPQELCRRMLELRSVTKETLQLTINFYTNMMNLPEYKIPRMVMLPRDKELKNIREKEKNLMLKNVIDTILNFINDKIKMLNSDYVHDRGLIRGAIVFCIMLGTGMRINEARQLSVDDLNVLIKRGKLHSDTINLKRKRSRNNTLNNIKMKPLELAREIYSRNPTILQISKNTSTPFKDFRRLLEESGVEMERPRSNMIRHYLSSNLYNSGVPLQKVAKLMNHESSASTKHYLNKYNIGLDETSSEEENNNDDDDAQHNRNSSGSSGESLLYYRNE

[2] = molecular target: T1, *VLF-1 (HAHIS-VLF-1, very late …); remark: listed apart in the source
[3] = molecular target: T1, *VLF-1 (HAHIS-VLF-1, very late …); remark: listed apart in the source
[4] = molecular target: T1, *VLF-1 (HAHIS-VLF-1, very late …); remark: listed apart in the source

B1: substrate I, linear single-stranded DNA (4X12-2) (ssDNA)
DNA: TGGGTGAACCTGCAGGTGGGCAAAGATGTCCTAGCAATGTAATCGTCAAGCTTTATGCCGTT
[1]
  binding result: no binding

B2: substrate II, linear double-stranded DNA (4X12-2/4X12-5) (dsDNA)
DNA 1: TGGGTGAACCTGCAGGTGGGCAAAGATGTCCTAGCAATGTAATCGTCAAGCTTTATGCCGTT
DNA 2: AACGGCATAAAGCTTGACGATTACATTGCTAGGACATCTTTGCCCACCTGCAGGTTCACCCA
[1]
  binding result: no binding

B3: substrate VII, hairpin hr DNA (v-hr1/v-hr3) (structured_DNA)
DNA 1: GGGGTTTGTTTTTCAAAACTAAACTCGCTTTACGAGTAGAATTCTACTTGTAACGCACAATCAAGGGATGATGTCAGGGG
DNA 2: CCCCTGACATCATCCCTTGATTGTGAGTTTAGTTTTGAAAAACAAACCCC
[2]
  binding result: binds

B4: substrate IV, three-way junction (4X12-2/4X12-1/4X12-3) (structured_DNA)
DNA 1: TGGGTGAACCTGCAGGTGGGCAAAGATGTCCTAGCAATGTAATCGTCAAGCTTTATGCCGTT
DNA 2: GACGCTGCCGAATTCTACCAGTGCCTTGCTAGGACATCTTTGCCCACCTGCAGGTTCACCC
DNA 3: CAACGGCATAAAGCTTGACGATTACATTGCTAGGACATGCTGTCTAGAGGATCCGACTATCGA
[3]
  binding result: binds

B5: substrate V, cruciform (4X12-2/4X12-1/4X12-3/4X12-4a) (structured_DNA)
DNA 1: TGGGTGAACCTGCAGGTGGGCAAAGATGTCCTAGCAATGTAATCGTCAAGCTTTATGCCGTT
DNA 2: GACGCTGCCGAATTCTACCAGTGCCTTGCTAGGACATCTTTGCCCACCTGCAGGTTCACCC
DNA 3: CAACGGCATAAAGCTTGACGATTACATTGCTAGGACATGCTGTCTAGAGGATCCGACTATCGA
DNA 4: ATCGATAGTCGGATCCTCTAGACAGCATGTCCTAGCAAGGCACTGGTAGAATTCGGCAGCGT
[4]
  binding result: binds
